Reference: PMC11723951

Target: CBX5^MBD chimera (CBX5 in which the chromodomain was replaced by the MeCP2 methyl-DNA binding domain) (UniProt P51608)

- chromocenter partition coefficient of the HRD in Suv39h1/2 null MEFs upon CBX5^MBD co-expression (1.33 without it; 11.54 in wild-type cells), live-cell imaging: 4.43
Substance: KMT5C heterochromatin retention domain (HRD), wild type, fluorescent fusion (domain or fragment)
